B1: C47A8 (antibody, V domains shown)
VH: QVQLVQSGAEVKKPGASVKVSCKASGYTFTSYYMHWVRQAPGQGLEWMGIINPSGGSTSYAQKFQGRVTMTRDTSTSTVYMELSSLRSEDTAVYYCARSTLWFSEFDYWGQGTLVTVSS
VL: QSVLTQPSSVSASPGQSITISCSGTSSDVGGHNYVSWYQQHPGKAPKLMIYDVTKRPSGVPDRFSGSKSGNTASLTVSGLQAEDEADYYCCSYAGSRVYVFGTGTKLTVL
notes: also called CD47A8
B2: C47B10 (antibody, V domains shown)
VH: QVQLVQSGAEVKKPGASVKVSCKASGYTFTSYYMHWVRQAPGQGLEWMGIINPSGGSTSYAQKFQGRVTMTRDTSTSTVYMELSSLRSEDTAVYYCARSTLWFSEFDYWGQGTLVTVSS
VL: QSVLTQPASVSGSPGQSISISCTGTSSDVGGHNYVSWYQQHPGKAPKLMIYDVRNRPSGVSNRFSGSKSGSTASLTISGLQTEDEADYYCNSYTGSRTYVFGSGTKLTVL
notes: lambda light chain (captured with anti-human lambda); also called CD47B10
B3: C47A8-CS (antibody, V domains shown)
VH: QVQLVQSGAEVKKPGASVKVSCKASGYTFTSYYMHWVRQAPGQGLEWMGIINPSGGSTSYAQKFQGRVTMTRDTSTSTVYMELSSLRSEDTAVYYCARSTLWFSEFDYWGQGTLVTVSS
VL: QSVLTQPSSVSASPGQSITISCSGTSSDVGGHNYVSWYQQHPGKAPKLMIYDVTKRPSGVPDRFSGSKSGNTASLTVSGLQAEDEADYYCSSYAGSRVYVFGTGTKLTVL
B4: C47A8-CQ (antibody, V domains shown)
VH: QVQLVQSGAEVKKPGASVKVSCKASGYTFTSYYMHWVRQAPGQGLEWMGIINPSGGSTSYAQKFQGRVTMTRDTSTSTVYMELSSLRSEDTAVYYCARSTLWFSEFDYWGQGTLVTVSS
VL: QSVLTQPSSVSASPGQSITISCSGTSSDVGGHNYVSWYQQHPGKAPKLMIYDVTKRPSGVPDRFSGSKSGNTASLTVSGLQAEDEADYYCQSYAGSRVYVFGTGTKLTVL

For orientation: Kd means the free concentration of one partner at which half of the binding sites on the other are occupied at equilibrium, for simple one-to-one binding. Low values mean higher affinity, high ones lower affinity. The term koff denotes a measure of how fast the partners let go of each other. The low end stands for slow dissociation, the high end for fast dissociation. In general, kon refers to the second-order rate constant of association. Read a high kon as faster complex formation.

T1 sequence (Q08722 19-139 limits assumed): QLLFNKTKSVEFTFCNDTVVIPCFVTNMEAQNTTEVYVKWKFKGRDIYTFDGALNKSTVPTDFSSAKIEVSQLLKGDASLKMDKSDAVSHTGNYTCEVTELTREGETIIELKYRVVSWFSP

This test addresses T1, human CD47 (human, UniProt Q08722 19-139, limits assumed, biotinylated in the ELISAs (site not stated)).
T1 construct: also called biotinylated CD47; CD47 receptor
Kind of test: SPR (BIACORE). (SPR reads the build-up and loss of mass on a sensor chip optically.)
The molecule B1 returned a Kd of 82.3 nM, a koff of 0.047 s⁻¹ and a kon of 576000 M⁻¹ s⁻¹.

Regarding B2, the Kd came to 12.1 nM, the koff is 0.00129 s⁻¹ and the association rate constant (kon) amounted to 106000 M⁻¹ s⁻¹.

Consider B3, for which the Kd is 156 nM, the koff amounted to 0.034 s⁻¹ and the kon was 215000 M⁻¹ s⁻¹.

In turn, B4 returned a dissociation constant Kd of 156 nM, a koff of 0.02 s⁻¹ and a kon of 129000 M⁻¹ s⁻¹.

For the origin of these results see patent US20160257751A1 (SORRENTO THERAPEUTICS, published 2016).
